Key:
[1] = Risk categorization of cell culture media ingredients
Text: Category 1: These cell culture media components are food ingredients/additives that are GRAS or permitted by federal regulation without limitation on use. Exemplary compounds in this category include innocuous ingredients such as sugars, pH buffers, water soluble vitamins, and common antioxidants such as tocopherols.
Category 2: These cell culture media components are common dietary nutrients and are anticipated to have GRAS status for food use or be permitted by regulation for addition to food. Examples of such compounds include most of the inorganic salts and macronutrients that are present within the cell culture media. […] Majority of nutrients present within the poultry cell-based meat may be readily measured using common validated methods for food composition testing. […]
For example, situations where the compound is not detectable in finished product or is present at equivalent levels in comparator foods, compounds that are thermo-labile and will be digested during cooking, and/or compounds that are expected to be digested to innocuous compounds following ingestion. […] For Category 3 substances a final consideration in the safety assessment process may involve hazard characterization of the potential for a substance to produce toxic biological effects outside of the endpoints measured in a sub-chronic rat toxicity study. […]

[2] = Maximum estimated dietary exposure to media ingredients per 100 g serving; details: assumption of complete transfer of media components to the finished product on a wt/wt basis

B1: Bovine Transferrin: iron carrier of cell culture media (protein, UniProt Q29443 20-704, looked up)
Serotransferrin: DPERTVRWCTISTHEANKCASFRENVLRILESGPFVSCVKKTSHMDCIKAISNNEADAVTLDGGLVYEAGLKPNNLKPVVAEFHGTKDNPQTHYYAVAVVKKDTDFKLNELRGKKSCHTGLGRSAGWNIPMAKLYKELPDPQESIQRAAANFFSASCVPCADQSSFPKLCQLCAGKGTDKCACSNHEPYFGYSGAFKCLMEGAGDVAFVKHSTVFDNLPNPEDRKNYELLCGDNTRKSVDDYQECYLAMVPSHAVVARTVGGKEDVIWELLNHAQEHFGKDKPDNFQLFQSPHGKDLLFKDSADGFLKIPSKMDFELYLGYEYVTALQNLRESKPPDSSKDECMVKWCAIGHQERTKCDRWSGFSGGAIECETAENTEECIAKIMKGEADAMSLDGGYLYIAGKCGLVPVLAENYKTEGESCKNTPEKGYLAVAVVKTSDANINWNNLKDKKSCHTAVDRTAGWNIPMGLLYSKINNCKFDEFFSAGCAPGSPRNSSLCALCIGSEKGTGKECVPNSNERYYGYTGAFRCLVEKGDVAFVKDQTVIQNTDGNNNEAWAKNLKKENFEVLCKDGTRKPVTDAENCHLARGPNHAVVSRKDKATCVEKILNKQQDDFGKSVTDCTSNFCLFQSNSKDLLFRDDTKCLASIAKKTYDSYLGDDYVRAMTNLRQCSTSKLLEACTFHKP
- Risk Assessment Category [1]: 3
- Maximum Estimated Exposure per 100 g serving [2]: 150 mg

Reference: patent publication US20240074473A1, “METHOD FOR INDUCING HYPERTROPHIC MUSCLE FIBERS FOR INDUSTRIAL MEAT PRODUCTION” (Yeda Research and Development Co. Ltd., priority 2021, published 2024)
